Measurements reported in paper PMC8368002, “Crystal structure of the INTS3/INTS6 complex reveals the functional importance of INTS3 dimerization in DSB repair” (Cell Discovery, 2020).

B3: C-terminus of INTS3 (INTS3c), residues 560–905 and 915–995 (domain or fragment, human)
chain 1: TVVEEPVDITPYLDQLDESLRDKVLQLQKGSDTEAQCEVMQEIVDQVLEEDFDSEQLSVLASCLQELFKAHFRGEVLPEEITEESLEESVGKPLYLIFRNLCQMQEDNSSFSLLLDLLSELYQKQPKIGYHLLYYLRASKAAAGKMNLYESFAQATQLGDLHTCLMMDMKACQEDDVRLLCHLTPSIYTEFPDETLRSGELLNMIVAVIDSAQLQELVCHVMMGNLVMFRKDSVLNILIQSLDWETFEQYCAWQLFLAHNIPLETIIPILQHLKYKEHPEALSCLLLQLRREKPSEEMVKMVLSRPCHPDDQFTTSILRHWCMKHDELLAEHIKSLLIKNNSLPRK
chain 2: KLAQLTLEQILEHLDNLRLNLTNTKQNFFSQTPILQALQHVQASCDEAHKMKFSDLFSLAEEYEDSSTKPPKSRRKAALSS
notes: Two polypeptides of one protein, co-expressed; residues 906-914 are absent; A selenomethionine form was used for phasing (2.6 Å); the final structure is of native crystals (2.4 Å); copies: 2 + 2

Columns and labels:
[1] = target: B3; assay: crystal structure; INTS3c/INTS6c complex from purified parts, crystallised in 1.7 M ammonium citrate tribasic pH 7.0, 4% v/v pentaerythritol ethoxylate; SAD on selenomethionine INTS3c, native data to 2.4 Å; conditions: both partners purified
[2] = target: the molecule itself; assay: SEC; analytical size-exclusion chromatography of co-expressed and purified INTS3-hSSB1 complexes (Supplementary Fig. S2)
INTS3(1-995);hSSB1 [3] = target: T1, INTS3(1-995);hSSB1 (human;human, UniProt Q68E01-2;Q9BQ15 1-995;1-211, |); assay: EMSA; comparable affinities among the three; EMSA: 50 mM NaCl, 20 mM HEPES pH 7.5, 1 mM MgCl2, 0.5 mM EDTA, 0.2 mM DTT, on ice 1 h; SPR: 200 mM NaCl, 40 mM HEPES pH 7.5, 50 uM EDTA, 25 C; conditions: protein: recombinant;recombinant; tags: ;; chain copies: 2;2
T1 sequence (Q9BQ15 whole entry, one chain of several): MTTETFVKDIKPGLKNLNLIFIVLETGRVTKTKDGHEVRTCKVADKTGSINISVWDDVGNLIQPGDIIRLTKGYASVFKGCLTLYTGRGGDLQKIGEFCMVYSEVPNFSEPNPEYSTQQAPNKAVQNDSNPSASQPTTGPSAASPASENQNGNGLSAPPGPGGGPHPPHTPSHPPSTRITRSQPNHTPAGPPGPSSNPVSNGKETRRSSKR

hSSB1 [4] = target: T2, hSSB1 (human, UniProt Q9BQ15 1-211); assay: as above; conditions: protein: recombinant
T2 sequence (Q9BQ15 whole entry): as the sequence (Q9BQ15 whole entry, one chain of several) above

[5] = target: T3, INTS3(1-500) (INTS3N);hSSB1 (human;human, UniProt Q68E01-2;Q9BQ15 1-500;1-211, |); assay: as above; conditions: protein: recombinant;recombinant; tags: ;; copies: 1;1
T3 sequence (Q9BQ15 whole entry, one chain of several): as above

[6] = target: the molecule itself; assay: crystal structure; INTS3c/INTS6c complex from purified parts, crystallised in 1.7 M ammonium citrate tribasic pH 7.0, 4% v/v pentaerythritol ethoxylate; SAD on selenomethionine INTS3c, native data to 2.4 Å
INTS3(1-995);hSSB1 [7] = target: T1, INTS3(1-995);hSSB1; assay: SPR; KD only in Fig. S5c; EMSA: 50 mM NaCl, 20 mM HEPES pH 7.5, 1 mM MgCl2, 0.5 mM EDTA, 0.2 mM DTT, on ice 1 h; SPR: 200 mM NaCl, 40 mM HEPES pH 7.5, 50 uM EDTA, 25 C; conditions: protein: recombinant;recombinant; tags: ;; chain copies: 2;2
hSSB1 [8] = target: T2, hSSB1; assay: SPR; hSSB1 immobilized; comparable to INTS3(1-500)/hSSB1; KD only in Fig. S5a; EMSA: 50 mM NaCl, 20 mM HEPES pH 7.5, 1 mM MgCl2, 0.5 mM EDTA, 0.2 mM DTT, on ice 1 h; SPR: 200 mM NaCl, 40 mM HEPES pH 7.5, 50 uM EDTA, 25 C; conditions: protein: recombinant
INTS3 full length;hSSB1 = INTS3 full length;hSSB1 (human;human, UniProt Q68E01-2;Q9BQ15 1-1042;1-211, |); assay: SPR; KD only in Fig. S5d; EMSA: 50 mM NaCl, 20 mM HEPES pH 7.5, 1 mM MgCl2, 0.5 mM EDTA, 0.2 mM DTT, on ice 1 h; SPR: 200 mM NaCl, 40 mM HEPES pH 7.5, 50 uM EDTA, 25 C; conditions: protein: recombinant;recombinant; tags: ;; copies: 1;1
Chain of INTS3 full length;hSSB1 (Q9BQ15 whole entry, one chain of several): as above

[9] = target: T3, INTS3(1-500) (INTS3N);hSSB1; assay: SPR; comparable to hSSB1 alone; KD only in Fig. S5b; EMSA: 50 mM NaCl, 20 mM HEPES pH 7.5, 1 mM MgCl2, 0.5 mM EDTA, 0.2 mM DTT, on ice 1 h; SPR: 200 mM NaCl, 40 mM HEPES pH 7.5, 50 uM EDTA, 25 C; conditions: protein: recombinant;recombinant; tags: ;; copies: 1;1
INTS3c = INTS3c (human, UniProt Q68E01-2;Q68E01-2 560-905;915-995); assay: EMSA; INTS3c alone unable to bind ssDNA; method inferred; EMSA: 50 mM NaCl, 20 mM HEPES pH 7.5, 1 mM MgCl2, 0.5 mM EDTA, 0.2 mM DTT, on ice 1 h; SPR: 200 mM NaCl, 40 mM HEPES pH 7.5, 50 uM EDTA, 25 C; conditions: protein: recombinant; tags: GST removed
Chain of INTS3c (Q68E01 916-996, chain 2 of 2, one chain of several): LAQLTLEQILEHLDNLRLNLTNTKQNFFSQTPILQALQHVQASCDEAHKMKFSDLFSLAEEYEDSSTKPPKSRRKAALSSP

[10] = target: INTS3(1-995);hSSB1;INTS6c (human;human;human, UniProt Q68E01-2;Q9BQ15;Q9UL03 1-995;1-211;800-887, ||); assay: EMSA; 1 mM MgCl2; INTS6c 1:1, no effect on binding; EMSA: 50 mM NaCl, 20 mM HEPES pH 7.5, 1 mM MgCl2, 0.5 mM EDTA, 0.2 mM DTT, on ice 1 h; SPR: 200 mM NaCl, 40 mM HEPES pH 7.5, 50 uM EDTA, 25 C; conditions: protein: recombinant;recombinant;recombinant; tags: ;;GST removed; chain copies: 2;2;2; label: 6-FAM (printed 6'-carboxy-fluorescein)
Chain of INTS3(1-995);hSSB1;INTS6c (Q9BQ15 whole entry, one chain of several): as the sequence (Q9BQ15 whole entry, one chain of several) above

INTS3(1-995);hSSB1 [11] = target: T1, INTS3(1-995);hSSB1; assay: EMSA; 1 mM MgCl2; EMSA: 50 mM NaCl, 20 mM HEPES pH 7.5, 1 mM MgCl2, 0.5 mM EDTA, 0.2 mM DTT, on ice 1 h; SPR: 200 mM NaCl, 40 mM HEPES pH 7.5, 50 uM EDTA, 25 C; conditions: protein: recombinant;recombinant; tags: ;; chain copies: 2;2; label: 6-FAM (printed 6'-carboxy-fluorescein)

B1: C-terminus of INTS6 (INTS6c), residues 800–887 (domain or fragment, human, UniProt Q9UL03 800-887, looked up)
chain: MHCRSHEEVNTELKAQIMKEIRKPGRKYERIFTLLKHVQGSLQTRLIFLQNVIKEASRFKKRMLIEQLENFLDEIHRRANQINHINSN
notes: integrator complex subunit 6 (INTS6), human, residues 800-887; Cloned into pGEX-6p-1
With B1 the “stoichiometry N” value [1] was 2 INTS3c:INTS6c.

B2: INTS3(1−995) (domain or fragment, human, UniProt Q68E01 1-995, looked up)
chain: MELQKGKGAAAAAAASGAAGGGGGGAGAGAPGGGRLLLSTSLDAKDELEERLERCMSIVTSMTAGVSEREANDALNAYVCKGLPQHEEICLGLFTLILTEPAQAQKCYRDLALVSRDGMNIVLNKINQILMEKYLKLQDTCRTQLVWLVRELVKSGVLGADGVCMTFMKQIAGGGDVTAKNIWLAESVLDILTEQREWVLKSSILIAMAVYTYLRLIVDHHGTAQLQALRQKEVDFCISLLRERFMECLMIGRDLVRLLQNVARIPEFELLWKDIIHNPQALSPQFTGILQLLQSRTSRKFLACRLTPDMETKLLFMTSRVRFGQQKRYQDWFQRQYLSTPDSQSLRCDLIRYICGVVHPSNEVLSSDILPRWAIIGWLLTTCTSNVAASNAKLALFYDWLFFSPDKDSIMNIEPAILVMHHSMKPHPAITATLLDFMCRIIPNFYPPLEGHVRQGVFSSLNHIVEKRVLAHLAPLFDNPKLDKELRAMLREKFPEFCSSPSPPVEVKIEEPVSMEMDNHMSDKDESCYDNAEAAFSDDEEDLNSKGKKREFRFHPIKETVVEEPVDITPYLDQLDESLRDKVLQLQKGSDTEAQCEVMQEIVDQVLEEDFDSEQLSVLASCLQELFKAHFRGEVLPEEITEESLEESVGKPLYLIFRNLCQMQEDNSSFSLLLDLLSELYQKQPKIGYHLLYYLRASKAAAGKMNLYESFAQATQLGDLHTCLMMDMKACQEDDVRLLCHLTPSIYTEFPDETLRSGELLNMIVAVIDSAQLQELVCHVMMGNLVMFRKDSVLNILIQSLDWETFEQYCAWQLFLAHNIPLETIIPILQHLKYKEHPEALSCLLLQLRREKPSEEMVKMVLSRPCHPDDQFTTSILRHWCMKHDELLAEHIKSLLIKNNSLPRKRQSLRSSSSKLAQLTLEQILEHLDNLRLNLTNTKQNFFSQTPILQALQHVQASCDEAHKMKFSDLFSLAEEYEDSSTKPPKSRRKAALSS
notes: The complex with hSSB1 was held on an NTA chip for SPR with DNA, so one of its chains may carry a His tag; source: co-expressed with hSSB1 and purified
In the case of B2, the “stoichiometry N” value [2] is reported as 2.

TTTTTTTTTTTT (ssDNA) [dT12]: binds (INTS3(1-995);hSSB1 [3]); binds (hSSB1 [4]); binds [5].

For B3, the “stoichiometry N” value [6] was 2.

TTTTTTTTTTTTTTTTTTTTTTTTTTTTTTTTTTTTTTTTTTTTTTTT (ssDNA) [dT48]: binds (INTS3(1-995);hSSB1 [7]); binds (hSSB1 [8]); binds (INTS3 full length;hSSB1). TTTTTTTTTTTTTTTTTTTTTTTTTTTTTTTTTTTTTTTTTTTTTTTT (ssDNA) [dT48]: binds [9].

TTTTTTTTTTTTTTTTTTTTTTTTTTTTTTTTTTTTTTTTTTTTTTTT (ssDNA) [ssDNA of Fig. S4d]: no binding (INTS3c).

TTTTTTTTTTTTTTTTTTTTTTTTTTTTTTTTTTTTTTTTTTTTTTTT (ssDNA) [dT48 (FAM)]: binds [10]; binds (INTS3(1-995);hSSB1 [11]).
